Experimental data taken from the supplement of paper PMC10126150.
± gives the standard deviation of the averaged measurements.

System: ATP
Assay: switch fluorescence ratio, 500 uM ATP over buffer (Cy3 cluster intensity, sum of 5 cycles each) (fold (ratio)); higher = stronger signal-on switching upon ATP binding; sequences stand for … in TCGTCGGCAGCGTCAGATGTGTATAAGAGACAGTTTTTTTTTTTTTTTTTTTTTTTTT…TC
Conditions: aptamer strand: ATP DNA aptamer (quencher-CACCTGGGGGAGTATTGCGGAGGAAGG + anchor), 100 nM annealed; ATP concentration: 500 uM
In short: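 Cy3-labelled switching-strand clusters on a modified Illumina MiSeq flow-cell were annealed to 100 nM quencher-labelled ATP aptamer and imaged first in selection buffer, then after 15 min with 500 uM ATP at 22 °C. NaOH stripping and re-annealing separated each of five buffer/ATP cycles, and clusters outside 100-1000 RFU were excluded. The fluorescence ratio sums target-cycle Cy3 intensity over buffer-cycle Cy3 intensity per cluster and averages it per switch-domain sequence.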
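Also: ATP exposure 15 min at 22 °C before imaging.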

| Sequence | switch fluorescence ratio |
| --- | --- |
| CTGCAACAGA | 1.0455 ± 0.00015 |
| CTGCAACGGA | 1.13 ± 0.056 |
| CTGCACCATG | 1.01 ± 0.028 |
| CTGCCAATGG | 1.99 ± 0.053 |
| CTGCCAGATG | 1.1 ± 0.054 |
| CTGCCCGGCG | 1.03 ± 0.027 |
| CTGCGGGGAT | 1.02 ± 0.027 |
| CTGCGGGGGG | 0.999 ± 0.015 |
| CTGCGGGGGT | 1.03 ± 0.038 |
| CTGCGTGCGG | 0.99635 ± 0.00049 |
| CTGCGTGGAG | 1.03 ± 0.026 |
| CTGCTACAGT | 1.03 ± 0.02 |
| CTGCTCCGAT | 1.21 ± 0.034 |
| CTGGAAAACC | 1.02 ± 0.0058 |
| CTGGAACAGT | 0.976 ± 0.015 |
| CTGGAATAGC | 2.21 ± 0.3 |
| CTGGAATGGG | 1.02 ± 0.056 |
| CTGGACTTAC | 1.34 ± 0.052 |
| CTGGAGACAG | 1.07 ± 0.018 |
| CTGGATTTAA | 1.0192 ± 7.7e-05 |
| CTGGCGCGGG | 1.02 ± 0.042 |
| CTGGCTACGG | 1.01 ± 0.032 |
| CTGGCTGCGG | 1.01 ± 0.039 |
| CTGGGACCTA | 1.02 ± 0.027 |
| CTGGGAGAGC | 1.05 ± 0.053 |

| Sequence | switch fluorescence ratio |
| --- | --- |
| CTGGGAGTGT | 0.9946 ± 0.0092 |
| CTGGGATTTT | 0.959 ± 0.0021 |
| CTGGGCAGGG | 1.02 ± 0.055 |
| CTGGGCGGTT | 0.9959 ± 0.0017 |
| CTGGGGAAAC | 1.03 ± 0.064 |
| CTGGGGAAAG | 1.02 ± 0.033 |
| CTGGGGACCT | 1.1 ± 0.066 |
| CTGGGGAGGA | 0.997 ± 0.028 |
| CTGGGGAGGC | 1.06 ± 0.041 |
| CTGGGGCAGA | 1.02 ± 0.011 |
| CTGGGGGCAA | 3.2 ± 0.68 |
| CTGGGGGTAA | 0.992 ± 0.02 |
| CTGGGGGTAG | 1.01 ± 0.016 |
| CTGGGGGTTG | 0.989 ± 0.044 |
| CTGGGTCGGG | 0.992 ± 0.0079 |
| CTGGGTGGGC | 0.993 ± 0.018 |
| CTGGGTGTGC | 1.01 ± 0.02 |
| CTGGTACAGA | 0.97 ± 0.13 |
| CTGGTATTTG | 1.05 ± 0.041 |
| CTGGTCACAG | 1 ± 0.024 |
| CTGGTCATCT | 0.991 ± 0.011 |
| CTGGTCGGCT | 1.09 ± 0.014 |
| CTGGTCTATT | 0.968 ± 0.017 |
| CTGGTGATTT | 1.05 ± 0.053 |
| CTGGTGCCGA | 0.985 ± 0.015 |

| Sequence | switch fluorescence ratio |
| --- | --- |
| CTGGTGGGGT | 1.02 ± 0.044 |
| CTGGTGTCGA | 0.978 ± 0.013 |
| CTGGTTACAC | 1.03 ± 0.033 |
| CTGGTTAGGA | 1 ± 0.066 |
| CTGGTTAGGC | 1.01 ± 0.034 |
| CTGGTTTGCC | 0.974 ± 0.048 |
| CTGGTTTGGA | 1 ± 0.022 |
| CTGTAAGCGG | 1.03 ± 0.03 |
| CTGTAATTGT | 0.98817 ± 0.00075 |
| CTGTACAAGC | 1.15 ± 0.03 |
| CTGTACGACA | 1.18 ± 0.02 |
| CTGTACTGGG | 0.9989 ± 0.0061 |
| CTGTAGGGAC | 1.18 ± 0.025 |
| CTGTAGTAGC | 2.38 ± 1.1 |
| CTGTATATGG | 0.985 ± 0.042 |
| CTGTATATTT | 0.9593 ± 0.0055 |
| CTGTATTACG | 0.995 ± 0.027 |
| CTGTATTATA | 0.996 ± 0.031 |
| CTGTATTCTG | 0.962 ± 0.015 |
| CTGTCAACGG | 1.02 ± 0.017 |
| CTGTCATTTG | 0.985 ± 0.03 |
| CTGTCCTAAT | 1.009 ± 0.0049 |
| CTGTCCTAGG | 1.036 ± 0.0033 |
| CTGTCGACTT | 0.986 ± 0.011 |
| CTGTCGCTTA | 1.01 ± 0.019 |

| Sequence | switch fluorescence ratio |
| --- | --- |
| CTGTCGTGTC | 0.9934 ± 0.003 |
| CTGTGACCGT | 1.02 ± 0.025 |
| CTGTGCGTGG | 0.973 ± 0.029 |
| CTGTGGCTAT | 1.01 ± 0.023 |
| CTGTGGCTCG | 0.9986 ± 0.0057 |
| CTGTGGCTGG | 0.9795 ± 0.0073 |
| CTGTGGGTTA | 0.9595 ± 0.004 |
| CTGTGTGGCC | 0.968 ± 0.073 |
| CTGTGTGTTA | 0.9816 ± 0.0036 |
| CTGTGTTTGG | 0.997 ± 0.038 |
| CTGTTAAAGG | 0.999 ± 0.013 |
| CTGTTGCCTG | 0.974 ± 0.041 |
| CTGTTGGGTC | 0.97927 ± 0.00013 |
| CTGTTTAGGG | 1.01 ± 0.018 |
| CTGTTTGTTG | 0.9707 ± 0.0013 |
| CTTAAAAATT | 0.9777 ± 0.0031 |
| CTTAACGGCG | 0.968 ± 0.044 |
| CTTAATCTC | 0.968 ± 0.02 |
| CTTACAGCTA | 1.097 ± 0.0016 |
| CTTACGGGGT | 1.1 ± 0.093 |
| CTTACGGGTC | 0.9901 ± 0.005 |
| CTTACTAGC | 1.02 ± 0.029 |
| CTTAGACCCC | 1.01 ± 0.02 |
| CTTAGAGCGG | 1.01 ± 0.022 |
| CTTAGATAAA | 0.985 ± 0.026 |

| Sequence | switch fluorescence ratio |
| --- | --- |
| CTTAGATGGA | 0.978 ± 0.023 |
| CTTAGCCGGG | 0.981 ± 0.032 |
| CTTAGCTAGT | 1.09 ± 0.13 |
| CTTAGGATAG | 0.996 ± 0.0029 |
| CTTAGGCCAG | 0.998 ± 0.032 |
| CTTAGGGAGT | 1.006 ± 0.0028 |
| CTTAGGGCTC | 1.026 ± 0.0042 |
| CTTAGGGGTG | 0.973 ± 0.011 |
| CTTAGGGTT | 0.997 ± 0.044 |
| CTTAGTAGTT | 1.01 ± 0.015 |
| CTTAGTGGCG | 0.9757 ± 0.0038 |
| CTTAGTTAGC | 1.02 ± 0.013 |
| CTTATAACAG | 1.01 ± 0.018 |
| CTTATAGCGC | 1.007 ± 0.0066 |
| CTTATCTGGG | 0.999 ± 0.041 |
| CTTATGAGGG | 0.99 ± 0.025 |
| CTTATGGGGG | 1.03 ± 0.046 |
| CTTATTCGAT | 0.999 ± 0.012 |
| CTTATTGTTT | 0.995 ± 0.069 |
| CTTATTTGGT | 0.992 ± 0.035 |
| CTTCAAAAGG | 1.68 ± 0.96 |
| CTTCAGTTAC | 1.82 ± 0.19 |
| CTTCATCTTT | 0.996 ± 0.018 |
| CTTCCCGCCG | 1.26 ± 0.057 |
| CTTCCGGGGT | 1.68 ± 0.1 |

| Sequence | switch fluorescence ratio |
| --- | --- |
| CTTCCGTTTT | 1.28 ± 0.042 |
| CTTCGAAGTT | 0.98 ± 0.045 |
| CTTCGGGCGA | 1.1 ± 0.023 |
| CTTCGGGGGA | 0.992 ± 0.01 |
| CTTCGGTAAC | 2.175 ± 0.0072 |
| CTTCTACCTG | 1.01 ± 0.035 |
| CTTCTCTTCA | 1.02 ± 0.03 |
| CTTCTGGAGG | 1.15 ± 0.028 |
| CTTCTGGGCG | 1.02 ± 0.032 |
| CTTGACAGA | 1.03 ± 0.024 |
| CTTGACGGTC | 1.11 ± 0.1 |
| CTTGACGGTT | 1.01 ± 0.092 |
| CTTGAGATGT | 1.02 ± 0.044 |
| CTTGAGTTAG | 1.015 ± 0.0066 |
| CTTGATACAG | 1.037 ± 0.0026 |
| CTTGATGTTG | 1.01 ± 0.012 |
| CTTGATTTGT | 1.01 ± 0.036 |
| CTTGGAGGGG | 1.0187 ± 0.00015 |
| CTTGGAGTTG | 1.02 ± 0.07 |
| CTTGGCATCT | 1.01 ± 0.033 |
| CTTGGCCGCG | 0.987 ± 0.011 |
| CTTGGGGAAT | 1.13 ± 0.24 |
| CTTGGGGCGC | 1.01 ± 0.049 |
| CTTGGGGCGG | 0.962 ± 0.017 |
| CTTGGGTGAA | 1.09 ± 0.19 |

| Sequence | switch fluorescence ratio |
| --- | --- |
| CTTGGGTTCT | 1 ± 0.012 |
| CTTGTAATGT | 1.02 ± 0.011 |
| CTTGTCTTAA | 1.02 ± 0.029 |
| CTTGTGCTTG | 1.0058 ± 0.00065 |
| CTTGTGGTGG | 1.006 ± 0.0089 |
| CTTGTTGAGG | 0.988 ± 0.012 |
| CTTGTTGTTT | 1.03 ± 0.15 |
| CTTGTTTCTC | 0.971 ± 0.028 |
| CTTTACTCAC | 1.27 ± 0.019 |
| CTTTAGAATC | 0.941 ± 0.021 |
| CTTTAGATGT | 0.98 ± 0.034 |
| CTTTAGTCAG | 1.01 ± 0.016 |
| CTTTATATGG | 0.96 ± 0.046 |
| CTTTATGGGA | 0.988 ± 0.031 |
| CTTTCGAGAG | 1 ± 0.025 |
| CTTTCGGGGG | 1.14 ± 0.2 |
| CTTTGACGGG | 0.989 ± 0.013 |
| CTTTGATTAG | 0.9838 ± 0.0061 |
| CTTTGCTTTT | 0.968 ± 0.023 |
| CTTTGGAAAT | 0.9997 ± 0.0023 |
| CTTTGGAGTG | 1.23 ± 0.38 |
| CTTTTAGTAG | 0.974 ± 0.015 |
| CTTTTATAGT | 0.984 ± 0.02 |
| CTTTTTAACA | 0.9742 ± 0.0062 |
| CTTTTTGGGG | 0.981 ± 0.029 |

| Sequence | switch fluorescence ratio |
| --- | --- |
| GAAAAAAGTA | 1.01 ± 0.031 |
| GAAAAAAGTG | 0.994 ± 0.047 |
| GAAAAAATTT | 1.031 ± 0.0019 |
| GAAAAAGAGA | 0.9736 ± 0.0016 |
| GAAAAAGCGT | 1.07 ± 0.03 |
| GAAAAATTAC | 1.49 ± 0.75 |
| GAAAAGGGTT | 0.978 ± 0.032 |
| GAAAAGTTTT | 0.969 ± 0.018 |
| GAAAATAACG | 1.11 ± 0.15 |
| GAAAATTGGT | 0.997 ± 0.023 |
| GAAACTGCTG | 1.01 ± 0.029 |
| GAAAGAAAAA | 1.09 ± 0.043 |
| GAAAGAGTGA | 1.01 ± 0.016 |
| GAAAGGCGGG | 0.985 ± 0.0041 |
| GAAAGGGTGT | 1.03 ± 0.026 |
| GAAAGGTCGG | 1.21 ± 0.27 |
| GAAAGTAAGC | 0.993 ± 0.012 |
| GAAAGTAATT | 0.996 ± 0.051 |
| GAAAGTAGGA | 1.02 ± 0.029 |
| GAAATACTTT | 1.03 ± 0.014 |
| GAAATCAGCA | 1.03 ± 0.023 |
| GAAATCGGTG | 0.995 ± 0.036 |
| GAAATGTACG | 1.04 ± 0.021 |
| GAAATGTAGG | 0.995 ± 0.034 |
| GAAATTCGGG | 0.978 ± 0.025 |
